Assay results as given in US20090297524A1 (DOMANTIS, published 2009).

T1: Recombinant human CD40L (human, UniProt P29965 108-261, limits assumed)
T1 construct: also called CD40 ligand
T1 sequence (looked up): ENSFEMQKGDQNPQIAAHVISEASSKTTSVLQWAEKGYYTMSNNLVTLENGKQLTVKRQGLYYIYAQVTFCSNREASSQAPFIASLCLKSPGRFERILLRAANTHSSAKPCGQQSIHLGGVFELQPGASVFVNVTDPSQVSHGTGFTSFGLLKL


Target: T1, Recombinant human CD40L
Test: CD40L/CD40-Fc receptor binding assay;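 further: plate assay with coated human CD40-Fc, bound ligand detected via HRP anti-biotin antibody and TMB, OD at 450 nm, lower signal indicates stronger inhibition by dAb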

binding result	Binder
binds	DOM.185 (other, VH dAb) VH: EVQLLESGGGLVQPGGSLRLSCAASGFTFAHYPMSWVRQAPGKGLEWVSSIGRLGNRTYYADSVKGRFTISRDNSKNTLYLQMNSLRAEDTAVYYCAKRATPVPIKGLFDYWGQGTLVTVSS
binds	DOM.202 (other, VH dAb) VH: EVQLLESGGGLVQPGGSLRLSCTASGFTFSHYEMGWVRQAPGKGLEWVSSIEPFGGGTYYADSVKGRFTISRDNSKNTLYLQMNSLRAEDTAVYYCAKVYPQGSFDYWGQGTLVTVSS
binds	DOM.189 (other, VH dAb) VH: EVQLLESGGGLVQPGGSLRLSCAASGFTFQMYPMGWVRQAPGKGLEWVSMIEPAGDLTYYADSVKGRFTISRDNSKNTLYLQMNSLRAEDTAVYYCAKYQEQPWFDYWGQGTLVTVSS
binds	DOM.146 (other, Vk dAb) VL: DIRMTQSPSSLSASVGDRVTITCRASQWIGDSLAWYQQKPGKAPKLLIYGISELQSGVPSRFSGSGSGTDFTLTISSLQPEDSATYYCQLSSSMPHTFGQGTKVEIKR
binds	DOM.203 (other, VH dAb) VH: EVQLLESGGGLVQPGGSLRLSCAASGFTFSNYTMGWVRQAPGKGLEWVSSIRPDGKITYYADSVKGRFTISRDNSKNTLYLQMNSLRAEDTAVYYCAEVYSSCAMCTPLLFDYWGQGTLVTVSS
binds	DOM.183 (other, VH dAb) VH: EVQLLESGGGLVQPGGSLRLSCAASGFTFADYGMGWVRQAPGKGLEWVSSIQSSGLRTYYADSVKGRFTISRDNSKNTLYLQMNSLRAEDTAVYYCAKRANSRRGFDYWGQGTLVTVSS
binds	DOM.141 (other, Vk dAb) VL: DIQMTQSPSSLSASVGDRVTITCRASQWIGDTLTWYQQKLGKAPKLLIYGGSELQSGVPPRFSGSGSGTDFTLTISSLQPEDFATYYCQQCISSPCTFGQGTKVEIKR
binds	DOM.204 (other, VH dAb) VH: EVQLLESGGGLVQPGGSLRLSCAASGFTFKRYSMAWVRQAPGKGLEWVSDIGPRGFSTYYADSVKGRFTISRDNSKNTLYLQMNSLRAEDTAVYYCAKVGRGQRDTSQPFDYWGQGTLVTVSS
binds	DOM.201 (other, VH dAb) VH: EVQLLESGGGLVQPGGSLRLSCAASGFTFGNYSMGWVRQAPGKGLEWVSSIGRHGGRTYYADSVKGRFTISRDNSKNTLYLQMNSLRAEDTAVYYCAKKGSTYPRFDYWGQGTLVTVSS
binds	DOM.197 (other, VH dAb) VH: EVQLLESGGGLVQPGGSLRLSCAASGFTFAKYKMWWVRQAPGKGLEWVSSITPKGHSTYYADSVKGRFTISRDNSKNTLYLQMNSLRAEDTAVYYCAKRPMTPFDYWGQGTLVTVSS
binds	DOM.200 (other, VH dAb) VH: EVQLLESGGGLVQPGGSLRLSCAASGFTFTNYSMGWVRQAPGKGLEWVSTIRPNGTKTYYADSVKGRFTISRDNSKNTLYLQMNSLRAEDTAVYYCAKRSSAHLQRFDYWGQGTLVTVSS
binds	DOM.199 (other, VH dAb) VH: EVQLLESGGGLVQPGGSLRLSCAASGFTFERYGMTWVRQAPGKGLEWVSSIWPRGQKTYYADSVKGRFTISRDNSKNTLYLQMNSLRAEDTAVYYCAKGNSRYVFDYWGQGTLVTVSS
binds	DOM.195 (other, VH dAb) VH: EVQLLESGGGLVQPGGSLRLSCAASGFTFGTYDMGWVRQAPGKGLEWVSRINWQGDRTYYADSVKGRFTISRDNSKNTLYLQMNSLRAEDTAVYYCAKAGFGHYVDGLGFDYWGQGTLVTVSS
binds	DOM.135 (other, VH dAb) VH: EVQLLESGGGLVQPGGSLRLSCAASGFTFRRYVMGWVRQAPGKGLEWVSWIEADGRTTYYADSVKGRFTISRDNSKNTLYLQMNSLRAEDTAVYYCAKGLTDQHVIEFDYWGQGTLVTVSS
binds	DOM.188 (other, VH dAb) VH: EVQLLESGGGLVQPGGSLRLSCAASGFTFTRYRMSWVRQAPGKGLEWVSGISRDGYRTYYADSVKGRFTISRDNSKNTLYLQMNSLRAEDTAVYYCAKGMTASFDYWGQGTLVTVSS
binds	DOM.187 (other, VH dAb) VH: EVQLLESGGGLVQPGGSLRLSCAASGFTFSSYSMVWVRQAPGKGLEWVSGINRGGTRTYYADSVKGRFTISRDNSKNTLYLQMNSLRAEDTAVYYCAKGWRRGFDYWGQGTLVTVSS
binds	DOM.192 (other, VH dAb) VH: EVQLLESGGGLVQPGGSLRLSCAASGFTFSRYPMSWVRQAPGKGLEWVSSINRSGMRTYYADSVKGRFTISRDNSKNTLYLQMNSLRAEDTAVYYCAEGHQAPFDYWGQGTLVTVSS

binding result	Binder
binds	DOM.209 (other, VH dAb) VH: EVQLLESGGGLVQPGGSLRLSCAASGFTFADYEMWWVRQAPGKGLEWVSAISRQGFATYYADSVKGRFTISRDNSKNTLYLQMNSLRAEDTAVYYCAKDLERDDFDYWGQGTLVTVSS
binds	DOM.181 (other, VH dAb) VH: EVQLLESGGGLVQPGGSLRLSCAASGFTFAFYPMMWVRQAPGKGLEWVSWIDATGTRTYYADSVKGRFTISRDNSKNTLYLQMNSLRAEDTAVYYCAEGNYGSSYTMGVFDYWGQGTLVTVSS
binds	DOM.194 (other, VH dAb) VH: EVQLLESGGGLVQPGGSLRLSCAASGFTFKQYDMRWVRQAPGKGLEWVSTISQNGTKTYYADSVKGRFTISRDNSKNTLYLQMNSLRAEDTAVYYCAKSRTGRYFDYWGQGTLVTVSS
binds	DOM.177 (other, VH dAb) VH: EVQLLESGGGLVQPGGSLRLSCAASGFTFSNYYMVWVRQAPGKGLEWVSAIDEWGFATYYADSVKGRFTISRDNSKNTLYLQMNSLRAEDTAVYYCAKHWEFTSDTSRFDYWGQGTLVTVSS
binds	DOM.137 (other, VH dAb) VH: EVQLLESGGGLVQPGGSLRLSCAASGFTFASYPMGWVRQAPGKGLEWVSSIGPIGFTTYYADSVKGRFTISRDNSKNTLYLQMNSLRAEDTAVYYCAEMKSPYKPQFDYWGQGTLVTVSS
binds	DOM.149 (other, Vk dAb) VL: DIQMTQSPSSLSASVGDRVTITCRASQWIGRQLVWYQQKPGKAPKLLIYGATELQSGVPSRFSGSGSGTDFTLTISSLQPEDFATYYCQQQSKGPLTFGHGTKVEIKR
binds	DOM.182 (other, VH dAb) VH: EVQLLESGGGLVQPGGSLRLSCAASGFTFDEYPMYWVRQAPGKGLEWVSSIGPSGPNTYYADSVKGRFTISRDNSKNTLYLQMNSLRAEDTAVYYCAKSPYFDVIPSYFDYWGQGTLVTVSS
binds	DOM.136 (other, VH dAb) VH: EVQLLESGGGLVQPGGSLRLSCAASGFTFDGYRMGWVRQAPGKGLEWVSSIAPDGNYTYYADSVKGRFTISRDNSKNTLYLQMNSLRAEDTAVYYCAKFWGMQFDYWGQGTLVTVSS
binds	DOM.191 (other, VH dAb) VH: EVQLLESGGGLVQPGGSLRLSCAASGFTFKLYPMTWVRQAPGKGLEWVSSIDAGGHETYYADSVKGRFTISRDNSKNTLYLQMNSLRAEDTAVYYCAKDWWDYLFDYWGQGTLVTVSS
binds	DOM.139 (other, VH dAb) VH: EVQLLESGGGLVQPGGSLRLSCAASGFTFSNYEMGWVRQAPGKGLEWVSVISEVGSLTYYADSVKGRFTISRDNSKNTLYLQMNSLRAEDTAVYYCAKPHDSSIGFDYWGQGTLVTVSS
binds	DOM.133 (other, VH dAb) VH: EVQLLESGGGLVQPGGSLRLSCAASGFTFIGYAMAWVRQAPGKGLEWVSSIGPLGATTYYADSVKGRFTISRDNSKNTLYLQMNSLRAEDTAVYYCAKLPAGTSSHSVDFDYWGQGTLVTVSS
binds	DOM.138 (other, VH dAb) VH: EVQLLESGGGLVQPGGSLRLSCAASGFTFLAYWMVWVRQAPGKGLEWVSSISPSGTHTYYADSVKGRFTISRDNSKNTLYLQMNSLRVEDTAVYYCAKYTEPGLGSFDYWGQGTLVTVSS
binds	DOM.176 (other, VH dAb) VH: EVQLLESGGGLVQPGGSLRLSCAASGFTFDAYEMGWVRQAPGKGLEWVSIIDWDGNSTYYADSVKGRFTISRDNSKNTLYLQMNSLRAEDTAVYYCAKPGDNVGIFDYWGQGTLVTVSS
binds	DOM.145 (other, Vk dAb) VL: DIQMTQSPSSLSASVGDRVTITCRASQTIYTSLSWYQQKPGKAPKLLIHYGSVLQSGVPSRFSGSGSGTDFTLTISSLQPEDSATYYCQQVHQAPTTFGQGTKVEIKR
binds	DOM.207 (other, VH dAb) VH: EVQLLESGGGLVQPGGSLRLSCAASGFTFDKYLMSWVRQAPGKGLEWVSGIEPLGDVTYYADSVKGRFTISRDNSKNTLYLQMNSLRAEDTAVYYCAKEASGDFDYWGQGTLVTVSS
binds	DOM.198 (other, VH dAb) VH: EVQLLESGGGLVQPGGSLRLSCAASGFTFERYNMSWVRQAPGKGLEWVSSIRPRGGKTYYADSVKGRFTISRDNSKNTLYLQMNSLRAEDTAVYYCAKWRREGYTGSKFDYWGQGTLVTVSS
